Source: the DeepSol protein solubility set

Experiment: soluble on expression in E. coli; label from the status in PepcDB or PDB records
In the case of “SDEVYLYSDATTSKIARTVTQKLGFSKASSSGTRLHRGYVEEATLEDKPSQTSHIVFVVHGIGQKMDQGRIIKNTAMMREAARKMEEKHFSNHATHVEFLPVEWRSKLTLDGDTVDSITPDKVRGLRDMLNSSAMDIMYYTSPLYRDELVKGLQQELNRLYSLFCSRNPDFEEKGGKVSIVSHSLGCVITYDIMMGWNPGGLYEQLLQKEEELPDERWMSYEERHLLDELYITKRRLREIEDRLHGLKAPSISQTPALKFKVENFFCMGSPLAVFLALRGIRPGNSGSQDHILPREICNRLLNIFHPTDPVAYRLEPLILKHYSNISPVQIHWYNTSNPLPYEHMKPNFLNPAKEPTSVSDSENIAAIPSPVTSPVLSRRHYGESITNIGKASILGAASIGKGLGGMLFSRFGRSSASQPSEPSKDSLEDDKKPSASPSTTTVATQTLPHSGSGFLDSAYFRLQESFFYLPQLLFPENVMQSKDDSLVELEHRIDFELREGLVESRYWSAVTSHTAYWSSLDVALFLLTFMYKHEHDTEAKPSLGSL”, the “soluble on expression in E. coli” value was “soluble”. In the case of “SDLPRHIAVLCDGNRRWARSAGYDDVSYGYRMGAAKIAEMLRWCHEAGIELATVYLLSTENLQRDPDELAALIEIITDVVEEICAPANHWSVRTVGDLGLIGEEPARRLRGAVESTPEVASFHVNVAVGYGGRREIVDAVRALLSKELANGATAEELVDAVTVEGISENLYTSGQPDPDLVIRTSGEQRLSGFLLWQSAYSEMWFTEAHWPAFRHVDFLRALRDYSAR”, the “soluble on expression in E. coli” value was “soluble”. With “SDLSALRVEEVQNVINAMQKILECPICLELIKEPVSTKCDHIFCKFCMLKLLNQKKGPSQCPLCKNDITKRSLQESTRFSQLVEELLKIICAFQLDTGLEYANSYNFAKK” the “soluble on expression in E. coli” value was “soluble”. For “SDTGFADSNNDSSPGEGSKRGNSGIEGPVPMDVELAAAKSKRLSEPFFLKNVLLEKSGDTSDLTALALSVHAVMLESGFVLLDHGSDKFSFSKKLLSVSLRYTLPELITRKDTNTVESVTVRFQNIGPRLVVYGTLGGSCKRVHMTSLDKSRFLPVIDLVVDTLKFEKQGSSSYYREVFMLWRMVKDELVIPLLIGLCDKAGLESPPCLMLLPTELKLKILELLPGVSIGYMACVCTEMRYLASDNDLWEHKCLEEGKGCLWKLYTGDVDWKRKFASFWRRKRLDLLARRNPPIKKSNPRFPTLFPDRRDRREPFDRFGPSDFYRFGLRDPRDRFGPRDPRDPHFYGFRY”, the “soluble on expression in E. coli” value was “soluble”. For “SDVNECLTIPEACKGEMKCINHYGGYLCLPRSAAVINDLHGEGPPPPVPPAQHPNPCPPGYEPDDQDSCVD”, the “soluble on expression in E. coli” value was “soluble”. With “SDVVEVVGSWWAQEREDIIMKYEKGHRAGLPEDKGPKPFGSYNNNIDHFGMQHETELPPLTAREVKQIRREISRKSKWVKMLGEWDTYKNSRKLIDRAYQGIPMNIRGPMWSVLLNIEEIKLKNPGRYQIMKEKGKRSSEHIQQMDLDVSGTLRRHIFFRDRYGTKQRELLYILLAYEEYNPEVGYCRDLSHIAALFLLYLPEEDAFWALVQLLASERHSLQGFHSPNGGTVQGLQDQQEHVVATSLPKTMWHQDKKDLCGQCSSLGCLIRILIDGISLGLTLRLWDVYLVEGEQAFMLITKSPLRFSRSASRRRPGVARGHVFGTGSLMPGPGMMTLCSSILGPL” the “soluble on expression in E. coli” value was “soluble”. With “SEAMFCDFPKINHGILYDEEKYKPFSQVPTGEVFYYSCEYNFVSPSKSFWTRITCAEEGWSPTPKCLRLCFFPFVENGHSESSGQTHLEGDTVQIICNTGYRLQNNENNISCVERGWSTPPKCRSTISAEKCGPPPPIDNGDITSFLLSVYAPGSSVEYQCQNLYQLEGNNQITCRNGQWSEPPKCLDPCVISQEIMEKYNIKLKWTNQQKLYSRTGDIVEFVCKSGYHPTKSHSFRAMCQNGKLVYPSCEEK” the “soluble on expression in E. coli” value was “soluble”. With “SEEVEAEEPQEFSHRQRLKAAVHYTVGCLCQEVTLNKQVNFSKQTIAAISEVTFRQCENFAKDLEMFARWVEKLAV” the “soluble on expression in E. coli” value was “soluble”. For “SEGWAGRVRRHLAGDPARGPTMDVLAAELGVSVRTLRRRLADEGTDYETVVDEIREALAEALLATTTLTVAEVSERLGYSEPSAFARAFRRWKAMSPNEYRRSA”, the “soluble on expression in E. coli” value was “soluble”. In the case of “SEKRFKVYVYEEGEPPLVHDGPCKSVYAVEGRFITEMEKRRTKFRTYDPNQAYVYFLPFSVTWLVRYLYEGNSDAKPLKTFVSDYIRLVSTNHPFWNRTNGADHFMLTCHDWGPLTSQANRDLFNTSIRVMCNANSSEGFNPTKDVTLPEIKLYGGEVDHKLRLSKTLSASPRPYLGFFAGGVHGPVRPILLKHWKQRDLDMPVYEYLPKHLNYYDFMRSSKFCFCPSGYEVASPRVIEAIYSECIPVILSVNFVLPFTDVLRWETFSVLVDVSEIPRLKEILMSISNEKYEWLKSNLRYVRRHFELNDPPQRFDAFHLTLHSIWLRRLNLKLT”, the “soluble on expression in E. coli” value was “soluble”. With “SELSQLLNEIRANYEKILTRNQIETVLSTRIQLEEDISKKMDKDEEALKAAQAELKEARRQWHHLQVEIESLHAVERGLENSLHASEQHYQMQLQDLETVIEGLEKELQEVRRGIEKQLQEHEMLLNTKMRLEQEIATYRHLLEKEEIRYYGCIQGGKKDKKPTTSRVGFVLPSAIINEISFTTKVPQKYENENVETVTKQAILNGSIVKESTEAHGTIQTEKVDEVIKEWEGSFFKDNPRLRKKSVSLRFDLHLAATDEGCLETKQDNLPDIEVRLIMRRSCSIPSIKPPSTAN” the “soluble on expression in E. coli” value was “soluble”. With “SENLTMNIDSTKTIQGTILPVLDFKTEKENVFTFKNTANLNLLIKHGQVINLINKLEFSTYGNKVTVSGGYVHTEYRYLLHHVFEVYPYVESQWAESRGMKYKVSTGLQSRYR” the “soluble on expression in E. coli” value was “not soluble”. With “SESQTLDKVYQMKSKPRGYCLIINNHNFAKAREKVPKLHSIRDRNGTHLDAGALTTTFEELHFEIKPHDDCTVEQIYEILKIYQLMDHSNMDCFICCILSHGDKGIIYGTDGQEAPIYELTSQFTGLKCPSLAGKPKVFFIQACQGDNYQKGIPVETASEEQPYLEMALSSPQTRYIPDEADFLLGMATVNNCVSYRNPAEGTWYIQSLCQSLRERCPRGDDILTILTEVNYEVSNKDDKKNMGKQMPQPTFTLRKKLVFPSDVEHHHHHH” the “soluble on expression in E. coli” value was “soluble”. With “SFNTYQHLLPETVRHLPDVKKQLAMVRPGLSMLSIFICLKGTKEDLKLQSTNYYVYFDTDMDKAMERYVSMPKEKAPEHIPLLFIAFPSSKDPTWEERFPDRSTMTALVPMAFEWFEEWQEEPKGKRGVDYETLKNAFVEASMSVIMKLFPQLEGKVESVTGGSPLTNQYYLAAPRGATYGADHDLARLHPHAMASIRAQTPIPNLYLTGQDIFTCGLMGALQGALLCSSAILKRNLYSDLQALGSKVKAQKKKM” the “soluble on expression in E. coli” value was “soluble”. With “SFRKGKKRHSSSSSQSSEISTKSKSVDSSLGGLSRSSTVASLDTDSTKSSGQSNNNSDTCAEFRIKYVGAIEKLKLSEGKGLEGPLDLINYIDVAQQDGKLPFVPPEEEFIMGVSKYGIKVSTSDQYDVLHRHALYLIIRMVCYDDGLGVGKSLLALKTTDASNEEYSLWVYQCNSLEQAQAICKVLSTAFDSVLTSEKP” the “soluble on expression in E. coli” value was “soluble”. In the case of “SFTSQQWKHLSNDFLKTQQEKRHSWFKASGTIKKFRAGLSIFSPIPKSPSFPIIQDSMLKGKLGVPELRVGRLMNRSISCTMKNPKVEVFGYPPSPQVSGHCKNIPTLEYGFLVQIMKYAEQRIPTLNEYCVVCDEQHVFQNGSMLKPAVCTRELCVFSFYTLGVMSGAAEEVATGAEVVDLLVAMCRAALESPRKSIIFEPYPSVVDPTDPKTLAFNPKKKNYERLQKALDSVMSIREMTQGSYLEIKKQMDKLDPLAHPLLQWIISSNRSHIVKLPLSRLKFMHTSHQFLLLSSPPAKEARFRTAKKLYGSTFAFHGSHIENWHSILRNGLVNASYTKLQEWEKDSTGCPPRMSWSRDTTG”, the “soluble on expression in E. coli” value was “soluble”. With “SGCGGSRADAIEPRYYESWTRETESTWLTYTDSDAPPSAAAPDSGPEAGGLHSGMLEDGLPSNGVPRSTAPGGIPNPEKKTNCETQCPNPQSLSSGPLTQKQNGLQTTEAKRDAKRMPAKEVTINVTDSIQQMDRSRRITKNCVN” the “soluble on expression in E. coli” value was “soluble”. For “SGILFMSKVGLRGDRRSEGDEVLDPLRQALDSSMQSHNLYQHPQHLAFHVSAPVASTVQQASGLLGPLPHLSSFALQPAHSLLPPLGSHGAGFQENGAKAES”, the “soluble on expression in E. coli” value was “soluble”. For “SGRFSIKAKNYFLTYPKCDLTKENALSQITNLQTPTNKLFIKICRELHENGEPHLHILIQFEGKYNCTNQRFFDLVSPTRSAHFHPNIQGAKSSSDVKSYIDKDGDVLEWGTFQIDGR”, the “soluble on expression in E. coli” value was “soluble”. With “SHMQLKFAECLEKKVDMSKVNLEVIKPWITKRVTEILGFEDDVVIEFIFNQLEVKNPDSKMMQINLTGFLNGKNAREFMGELWPLLLSAQENIAGIPSAFLELKKEEIKQR” the “soluble on expression in E. coli” value was “soluble”. With “SHSSSRASFTTRGDIRRQVEGFSASGERNKDTVVDLSTFFAERGYSNNQAPTKYWEEKLVTIGNVVVPKWVPVKERNSSNKQKEGEDEVFIGFEAIYYPEQPPERQPITLYQEENKVEEEEQSRE” the “soluble on expression in E. coli” value was “soluble”. In the case of “SIAYIEPYFLENDAEAASAATAAGKSTDGVSESLNIQGEILCGGAAADIAGRDFGGMNCVKPLAVVRPVGPEDIAGAVKAALRSDKLTVAARGNGHSINGQAMAEGGLVVDMSTTAENHFEVGYLSGGDATAFVDVSGGALWEDVLKRCVSEYGLAPRSWTDYLGLTVGGTLSNAGVSGQAFRYGPQTSNVTELDVVTGNGDVVTCSEIENSELFFSVLGGLGQFGIITRARVLLQPAPDMVRWIRVVYTEFDEFTQDAEWLVSQKNESSFDYVEGFVFVNGADPVNGWPTVPLHPDHEFDPTRLPQSCGSVLYCLELGLHYRDSDSNSTIDKRVERLIGRLRFNEGLRFEVDLPYVDFLLRVKRSEEIAKENGTWETPHPWLNLFVSKRDIGDFNRTVFKELVKNGVNGPMLVYPLLRSRWDDRTSVVIPEEGEIFYIVALLRFVPPCAKVSSVEKMVAQNQEIVHWCVKNGIDYKLYLPHYKSQEEWIRHFGNRWSRFVDRKAMFDPMAILSPGQKIFNRSL”, the “soluble on expression in E. coli” value was “soluble”. With “SIEKARSAAAKEVQKMKTSDKAEATHYLQMGAYADRQSAEGQRAKLAILGISSKVVGYQAGHKTLYRVQSGNMSADAVKKMQDELKKHEVASLIRSIESK” the “soluble on expression in E. coli” value was “not soluble”. For “SIERLGYLGFAVKDVPAWDHFLTKSVGLMAAGSAGDAALYRADQRAWRIAVQPGELDDLAYAGLEVDDAAALERMADKLRQAGVAFTRGDEALMQQRKVMGLLCLQDPFGLPLEIYYGPAEIFHEPFLPSAPVSGFVTGDQGIGAFVRCVPDTAKAMAFYTEVLGFVLSDIIDIQMGPETSVPAHFLHCNGRHHTIALAAFPIPKRIHHFMLQANTIDDVGYAFDRLDAAGRITSLLGRHTNDQTLSFYADTPSPMIEVEFGWGPRTVDSSWTVARHSRTAMWGHKSVRGQR”, the “soluble on expression in E. coli” value was “soluble”. In the case of “SIHSMDKPIESKEGNVSVGKFKLSDSSINNPEEIISVPSSTTEIEKVEMKPGRGEGLNPELLPASVSELLIPSPFQPQIPDGNNSSVEFHPSKVVLIGTAHVSEKSVNEVRSAIRNLKPDIVAVELCRARYDSLKGNVPETNQVPIKEILTEGKVYYYLVHWLLAYVQKKIGEDMGVKPGSEMISAIEEAEASGAKIALIDRDIQVTLQRFWGRMKFTEKIKMLGSLIGGLIGIGKGAEIDIDQITQQDVVTALVSELREFAPTAAETLIDERDAYLAGSILRTAAGGNKTIVAVIGAGHKPGVINYLENPKSLPPLNSLMQIPKKR”, the “soluble on expression in E. coli” value was “not soluble”. In the case of “SISKEEILKPIWYAFTALDLDRNGKVSKSQLKVLSHNLCTILKIPHNTSALEEHFKDDDEGPVSTQGYMPYLNTFILSKIQPNFDFVELNKMCWTLSAPKHINTMNLLMSEKDAFRVWCIFNFLSEDKYPLTIVTEELEYFLRKLLTAMGCSWNEGRFEDYKMHLNAKTWKHKVSKHEGLLKLVQPGGKTPSKMTNWGQAAFTESELNELEKMWQVNKNRSEEE”, the “soluble on expression in E. coli” value was “soluble”. In the case of “SKARTVAGPVGGSLSVQCPYEKEHRTLNKYWCRPPQIFLCDKIVETKGSAGKRNGRVSIRDSPANLSFTVTLENLTEEDAGTYWCGVDTPWLQDFHDPVVEVEVSVFPAS”, the “soluble on expression in E. coli” value was “soluble”.
